Laboratory results reported in article PMC12152876 (The Journal of Biological Chemistry, 2025).

Molecular target: the molecule itself
Assay: cross-linking

B1: Ebola virus nucleoprotein (NP), wild type, expressed for DSP cross-linking (natural protein)
chain: MDSRPQKIWMAPSLTESDMDYHKILTAGLSVQQGIVRQRVIPVYQVNNLEEICQLIIQAFEAGVDFQESADSFLLMLCLHHAYQGDYKLFLESGAVKYLEGHGFRFEVKKRDGVKRLEELLPAVSSGKNIKRTLAAMPEEETTEANAGQFLSFASLFLPKLVVGEKACLEKVQRQIQVHAEQGLIQYPTAWQSVGHMMVIFRLMRTNFLIKFLLIHQGMHMVAGHDANDAVISNSVAQARFSGLLIVKTVLDHILQKTERGVRLHPLARTAKVKNEVNSFKAALSSLAKHGEYAPFARLLNLSGVNNLEHGLFPQLSAIALGVATAHGSTLAGVNVGEQYQQLREAATEAEKQLQQYAESRELDHLGLDDQEKKILMNFHQKKNEISFQQTNAMVTLRKERLAKLTEAITAASLPKTSGHYDDDDDIPFPGPINDDDNPGHQDDDPTDSQDTTIPDVVVDPDDGSYGEYQSYSENGMNAPDDLVLFDLDEDDEDTKPVPNRSTKGGQQKNSQKGQHIEGRQTQSRPIQNVPGPHRTIHHASAPLTDNDRRNEPSGSTSPRMLTPINEEADPLDDADDETSSLPPLESDDEEQDRDGTSNRTPTVAPPAPVYRDHSEKKELPQDEQQDQDHTQEARNQDSDNTQSEHSFEEMYRHILRSQGPFDAVLYYHMMKDEPVVFSTSDGKEYTYPDSLEEEYPPWLTEKEAMNEENRFVTLDGQQFYWPVMNHKNKFMAILQHHQ
- stoichiometry N: 2
